Measurements from PMC6299097.

Key:
Experiment in all cases: crystal structure; L1 pentamers (Cys175 to Ser, limited trypsin digestion) at ~5 mg/mL, vapour diffusion at 20 °C
[1] = biological target: H58-33BC chimeric L1 pentamer (Human papillomavirus type 58)
[2] = biological target: H58-33BC-52HI chimeric L1 pentamer (Human papillomavirus type 58)
[3] = biological target: HPV33 L1 pentamer (Human papillomavirus type 33)
[4] = biological target: HPV52 L1 pentamer (Human papillomavirus type 52)

Question: How did the stoichiometry N [1] turn out when H58-33BC chimeric L1 pentamer (complex) was run?
Answer: 5

Question: With “H58-33BC-52HI chimeric L1 pentamer (complex)” as the substance, how does the stoichiometry N [2] read?
Answer: 5

Question: How did the stoichiometry N [3] turn out when HPV33 L1 pentamer (complex) was run?
Answer: 5

Question: How did the stoichiometry N [4] turn out when HPV52 L1 pentamer (complex) was run?
Answer: 5
